Measurements as given in patent US20230277625A1 (SIMCHA IL 18, published 2023).

Legend:
[1] = biological target: T1, Human IL-18BP (amino acids 31-194), biotinylated (human, UniProt O95998 31-194, biotin on the AviTag (BirA ligase) where used biotinylated); assay: SPR; KD(IL-18BP)/KD(IL-18Rα) normalized to WT IL-18
T1 construct: Soluble decoy receptor; also called hIL-18BP; recombinant IL-18BP
T1 sequence: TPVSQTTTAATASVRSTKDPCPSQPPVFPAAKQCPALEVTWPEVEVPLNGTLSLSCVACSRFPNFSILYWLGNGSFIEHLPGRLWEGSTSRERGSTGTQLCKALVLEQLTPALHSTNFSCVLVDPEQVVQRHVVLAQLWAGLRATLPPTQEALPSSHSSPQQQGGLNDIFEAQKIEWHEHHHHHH

[2] = biological target: T1, Human IL-18BP (amino acids 31-194), …; assay: SPR; average of 2 studies; SPR, average of 2 studies
[3] = biological target: T1, Human IL-18BP (amino acids 31-194), …; assay: SPR; KD for IL-18BP over KD for IL-18Rα; SPR; ratio of two measured KD
Method: (§1) Experiments were conducted using a Biacore T100 and carried out at 25° C. Biotinylated IL-18Rα or IL-18BP were immobilized onto a Biacore biotin capture chip (Series S CAP sensor chip, GE Healthcare) to yield an Rmax of ˜50 RU (IL-18Rα) or ˜10 RU (IL-18BP). Measurements were made with serial dilutions of the IL-18 variants in HEPES buffered Saline-P+buffer (10 mM HEPES pH 7.4, 150 mM NaCl, 0.005% surfactant P20). The surface was regenerated by three 60-sec injections of regeneration buffer (3/4 (v/v) 8M guanidine hydrochloride with 1/4 (v/v) 1M sodium hydroxide). Experiments were performed in multiple channels simultaneously for increased observations. All data were analyzed with the Biacore T100 evaluation software version 2.0 with a 1:1 Langmuir binding model.
(§2) To additionally characterize the receptor binding activities of the DR-IL-18 variants, the cytokines were expressed recombinantly and surface plasmon resonance for IL-18Rα and IL-18BP was performed (see FIG. 5B for representative traces).

[4] = biological target: T2, Human IL-18Rα ectodomain (amino acids 19-329), biotinylated (human, UniProt Q13478 19-329, biotin on the AviTag (BirA ligase)); assay: SPR; average of 2 studies
T2 construct: range 19-329; Secreted from insect cells (gp67 signal peptide removed); also called hIL-18Rα; hIL18Rα
T2 sequence: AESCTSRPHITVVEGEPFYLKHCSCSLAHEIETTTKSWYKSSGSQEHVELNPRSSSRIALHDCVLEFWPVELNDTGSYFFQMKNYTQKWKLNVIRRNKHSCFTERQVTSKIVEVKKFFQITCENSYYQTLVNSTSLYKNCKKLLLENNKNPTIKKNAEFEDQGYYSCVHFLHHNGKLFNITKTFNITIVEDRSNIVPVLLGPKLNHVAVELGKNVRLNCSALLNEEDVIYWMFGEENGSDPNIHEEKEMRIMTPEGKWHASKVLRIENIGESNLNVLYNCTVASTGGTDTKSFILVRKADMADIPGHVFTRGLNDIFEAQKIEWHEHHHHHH

[5] = biological target: T2, Human IL-18Rα ectodomain (amino acids …); assay: SPR (Biacore T100), receptor captured via biotin, IL-18 as analyte
Method: as §1, §2

[6] = biological target: T1, Human IL-18BP (amino acids 31-194), …; assay: SPR (Biacore T100), IL-18BP captured via biotin, IL-18 as analyte; SPR, recombinant soluble variant, biotinylated hIL-18BP on the chip
Method: as §1, §2

[7] = biological target: T1, Human IL-18BP (amino acids 31-194), …; assay: on-yeast binding isotherm (flow cytometry); members per FIG. 5A legend
Method: (§3) Individual colonies of IL-18 yeast were grown overnight at 30° C. in SDCAA liquid media and induced in SGCAA liquid media for 1 day at 20° C. IL-18 display levels on yeast were verified by flow cytometry using an anti-cMyc tag antibody (anti-myc-PE; Cell Signaling Technologies). Receptor staining with biotinylated IL-18Rα (with or without IL-18R β) or biotinylated IL-18BP was performed in PBS supplemented with 0.5% BSA and 2 mM EDTA (PBE) on ice. All analysis was performed on a Sony SA3800 flow cytometer.
as §2

[8] = biological target: T1, Human IL-18BP (amino acids 31-194), …; assay: SPR; KD ratio relative to WT IL-18; SPR; ratio normalized to WT
Method: as §1, §2

[9] = biological target: T1, Human IL-18BP (amino acids 31-194), …; assay: on-yeast binding isotherms; 20 µM used for NBD; yeast-displayed variant; ratio computed with 20 µM put in for NBD
[10] = biological target: T1, Human IL-18BP (amino acids 31-194), …; assay: on-yeast binding isotherms; KD ratio relative to WT IL-18; yeast-displayed variant; ratio normalized to WT, from the 20 µM placeholder
[11] = biological target: T3, Mouse IL-18BP (amino acids 31-194), biotinylated (mouse, UniProt Q9Z0M9 29-193, biotin on the AviTag (BirA ligase)); assay: on-yeast binding isotherms; KD ratio relative to WT IL-18
T3 construct: also called mIL-18BP
T3 sequence: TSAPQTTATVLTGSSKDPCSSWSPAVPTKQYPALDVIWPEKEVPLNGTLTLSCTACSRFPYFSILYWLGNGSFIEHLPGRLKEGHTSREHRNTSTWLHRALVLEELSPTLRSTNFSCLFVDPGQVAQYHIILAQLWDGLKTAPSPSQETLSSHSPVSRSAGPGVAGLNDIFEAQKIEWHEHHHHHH
Method: as §3

[12] = biological target: T3, Mouse IL-18BP (amino acids 31-194), …; assay: SPR (Biacore T100), IL-18BP captured via biotin, IL-18 as analyte
Method: as §1

[13] = biological target: T3, Mouse IL-18BP (amino acids 31-194), …; assay: on-yeast binding isotherm (flow cytometry): yeast-displayed murine IL-18 variant titrated with mIL-18BP, % max
Method: as §3

[14] = biological target: T3, Mouse IL-18BP (amino acids 31-194), …; assay: SPR; KD(IL-18BP)/KD(IL-18Rα) normalized to WT IL-18
[15] = biological target: T4, Mouse IL-18Rα ectodomain (amino acids 19-329), biotinylated (mouse, UniProt Q61098 19-329, biotin on the AviTag (BirA ligase)); assay: SPR (Biacore T100), receptor captured via biotin, IL-18 as analyte
T4 construct: range 19-329; Secreted from Expi293 cells (H7 signal peptide removed); also called mIL-18Rα; mIL18Ra
T4 sequence: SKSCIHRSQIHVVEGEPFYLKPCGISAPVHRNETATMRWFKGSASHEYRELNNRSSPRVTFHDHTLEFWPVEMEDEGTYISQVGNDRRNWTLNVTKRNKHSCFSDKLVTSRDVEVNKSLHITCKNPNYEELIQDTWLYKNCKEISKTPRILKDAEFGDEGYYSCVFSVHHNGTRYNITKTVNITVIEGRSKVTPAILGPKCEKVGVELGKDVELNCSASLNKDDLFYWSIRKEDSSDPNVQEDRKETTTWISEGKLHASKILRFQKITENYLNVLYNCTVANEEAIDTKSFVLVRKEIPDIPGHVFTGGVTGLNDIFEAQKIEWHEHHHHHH
Method in brief: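 Biotinylated IL-18Rα or IL-18BP captured on a biotin CAP chip (Rmax ~50 RU or ~10 RU respectively), with serial dilutions of IL-18 variants as analyte. Run at 25° C in HBS-P+ (10 mM HEPES pH 7.4, 150 mM NaCl, 0.005% P20); guanidine/NaOH regeneration. KD from 1:1 Langmuir fit.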

[16] = biological target: T3, Mouse IL-18BP (amino acids 31-194), …; assay: SPR, immobilized biotinylated mIL-18BP, representative sensorgram FIG. 11B; representative sensorgram, FIG. 11B
Method: By contrast, very little binding is observed with the same variants and mIL-18BP (right). FIG. 11B provides measurement of IL-18BP binding using representative surface plasmon resonance sensor grams between immobilized biotinylated mIL-18BP and the murine DR-IL-18 variants.
as §1

[17] = biological target: T4, Mouse IL-18Rα ectodomain (amino acids …); assay: on-yeast binding isotherm (flow cytometry)
Method in brief: (§4)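 Yeast displaying IL-18 variants were grown at 30 °C, then induced 1 day at 20 °C, with display checked by anti-myc-PE. Cells were stained on ice with biotinylated IL-18Rα (± IL-18Rβ) or biotinylated IL-18BP in PBS/0.5% BSA/2 mM EDTA. Binding was read by flow cytometry.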

[18] = biological target: T3, Mouse IL-18BP (amino acids 31-194), …; assay: on-yeast binding isotherm (flow cytometry)
Method in brief: as §4

[19] = biological target: T3, Mouse IL-18BP (amino acids 31-194), …; assay: on-yeast binding isotherms; KD for IL-18BP over KD for IL-18Rα
Method: as §3

[20] = biological target: T3, Mouse IL-18BP (amino acids 31-194), …; assay: SPR; KD ratio relative to WT IL-18
Method: as §1

[21] = biological target: T3, Mouse IL-18BP (amino acids 31-194), …; assay: SPR; KD for IL-18BP over KD for IL-18Rα
Method: as §1

[22] = biological target: T4, Mouse IL-18Rα ectodomain (amino acids …); assay: SPR
[23] = biological target: T3, Mouse IL-18BP (amino acids 31-194), …; assay: SPR

B1: SEQ ID NO: 37 (human DR-IL-18 variant hCS4) (ligand)
chain: RFGKLESKLSVIRNLNDQVLFIDQGNRPLFEDMTDSDCRDNAPRTIFIISTYRDSQPRGKAVTISVKCEKISTLSCENKIISFKEMNPPDNIKDTKSDIIFFQRNVPGHKYKMQFESSSYEGYFLACEKERDLFKLILKKEDELGDRSIMFTVQNED
notes: Engineered variant
IL-18 BP:Rα Dissociation Constant Ratio [1]: 32200
Kd [2]: 121 nM
KD ratio IL-18BP/IL-18Rα [3]: 41.8
Kd [4]: 7.7 nM
Kd [5]: 4.38 nM
Kd [6]: 183 nM
EC50 [7]: > 1000 nM
Dissociation Constant Ratio normalized to WT IL-18 [8]: 64500
KD ratio IL-18BP/IL-18Rα [9]: > 125
Dissociation Constant Ratio normalized to WT IL-18 [10]: > 424

B2: Mouse Interleukin-18 (mature form), wild type (ligand)
chain: NFGRLHCTTAVIRNINDQVLFVDKRQPVFEDMTDIDQSASEPQTRLIIYMYKDSEVRGLAVTLSVKDSKMSTLSCKNKIISFEEMDPPENIDDIQSDLIFFQKRVPGHNKMEFESSLYEGHFLACQKEDDAFKLILKKKDENGDKSVMFTLTNLHQS
notes: also called mIL-18 WT; WT mIL-18
Dissociation Constant Ratio normalized to WT IL-18 [11]: 1
Kd [12]: 0.0011 nM
EC50 (read off the curve) [13]: ~20 nM
IL-18 BP:Rα Dissociation Constant Ratio [14]: 1
Kd [15]: 0.6 nM
Kd [16]: 0.0008 nM
Kd [17]: 11.3 nM
Kd [18]: 2.13 nM
KD ratio IL-18BP/IL-18Rα [19]: 0.188
Dissociation Constant Ratio normalized to WT IL-18 [20]: 1
KD ratio IL-18BP/IL-18Rα [21]: 0.00183
Kd [22]: 0.6 nM
Kd [23]: 0.0011 nM
